The target in the test is T1, Recombinant human Dicer (FLAG-Dicer) (human, UniProt Q9UPY3 1-1922).
T1 construct: Dicer, human RNase III enzyme; source: Expi293 cells expressing FLAG-Dicer (University of Michigan Protein core), purified (M2 anti-FLAG resin)
Description: SEC; purified Dicer and TRBP mixed at a 1:3 molar ratio, concentrated, loaded on HiLoad 16/600 Superdex 200 in buffer D (20 mM Tris-HCl pH 8.0, 150 mM NaCl, 2 mM DTT). As to conditions: both partners purified. (In general: In gel filtration, larger molecules generally elute earlier.)

T1 sequence (Q9UPY3 whole entry): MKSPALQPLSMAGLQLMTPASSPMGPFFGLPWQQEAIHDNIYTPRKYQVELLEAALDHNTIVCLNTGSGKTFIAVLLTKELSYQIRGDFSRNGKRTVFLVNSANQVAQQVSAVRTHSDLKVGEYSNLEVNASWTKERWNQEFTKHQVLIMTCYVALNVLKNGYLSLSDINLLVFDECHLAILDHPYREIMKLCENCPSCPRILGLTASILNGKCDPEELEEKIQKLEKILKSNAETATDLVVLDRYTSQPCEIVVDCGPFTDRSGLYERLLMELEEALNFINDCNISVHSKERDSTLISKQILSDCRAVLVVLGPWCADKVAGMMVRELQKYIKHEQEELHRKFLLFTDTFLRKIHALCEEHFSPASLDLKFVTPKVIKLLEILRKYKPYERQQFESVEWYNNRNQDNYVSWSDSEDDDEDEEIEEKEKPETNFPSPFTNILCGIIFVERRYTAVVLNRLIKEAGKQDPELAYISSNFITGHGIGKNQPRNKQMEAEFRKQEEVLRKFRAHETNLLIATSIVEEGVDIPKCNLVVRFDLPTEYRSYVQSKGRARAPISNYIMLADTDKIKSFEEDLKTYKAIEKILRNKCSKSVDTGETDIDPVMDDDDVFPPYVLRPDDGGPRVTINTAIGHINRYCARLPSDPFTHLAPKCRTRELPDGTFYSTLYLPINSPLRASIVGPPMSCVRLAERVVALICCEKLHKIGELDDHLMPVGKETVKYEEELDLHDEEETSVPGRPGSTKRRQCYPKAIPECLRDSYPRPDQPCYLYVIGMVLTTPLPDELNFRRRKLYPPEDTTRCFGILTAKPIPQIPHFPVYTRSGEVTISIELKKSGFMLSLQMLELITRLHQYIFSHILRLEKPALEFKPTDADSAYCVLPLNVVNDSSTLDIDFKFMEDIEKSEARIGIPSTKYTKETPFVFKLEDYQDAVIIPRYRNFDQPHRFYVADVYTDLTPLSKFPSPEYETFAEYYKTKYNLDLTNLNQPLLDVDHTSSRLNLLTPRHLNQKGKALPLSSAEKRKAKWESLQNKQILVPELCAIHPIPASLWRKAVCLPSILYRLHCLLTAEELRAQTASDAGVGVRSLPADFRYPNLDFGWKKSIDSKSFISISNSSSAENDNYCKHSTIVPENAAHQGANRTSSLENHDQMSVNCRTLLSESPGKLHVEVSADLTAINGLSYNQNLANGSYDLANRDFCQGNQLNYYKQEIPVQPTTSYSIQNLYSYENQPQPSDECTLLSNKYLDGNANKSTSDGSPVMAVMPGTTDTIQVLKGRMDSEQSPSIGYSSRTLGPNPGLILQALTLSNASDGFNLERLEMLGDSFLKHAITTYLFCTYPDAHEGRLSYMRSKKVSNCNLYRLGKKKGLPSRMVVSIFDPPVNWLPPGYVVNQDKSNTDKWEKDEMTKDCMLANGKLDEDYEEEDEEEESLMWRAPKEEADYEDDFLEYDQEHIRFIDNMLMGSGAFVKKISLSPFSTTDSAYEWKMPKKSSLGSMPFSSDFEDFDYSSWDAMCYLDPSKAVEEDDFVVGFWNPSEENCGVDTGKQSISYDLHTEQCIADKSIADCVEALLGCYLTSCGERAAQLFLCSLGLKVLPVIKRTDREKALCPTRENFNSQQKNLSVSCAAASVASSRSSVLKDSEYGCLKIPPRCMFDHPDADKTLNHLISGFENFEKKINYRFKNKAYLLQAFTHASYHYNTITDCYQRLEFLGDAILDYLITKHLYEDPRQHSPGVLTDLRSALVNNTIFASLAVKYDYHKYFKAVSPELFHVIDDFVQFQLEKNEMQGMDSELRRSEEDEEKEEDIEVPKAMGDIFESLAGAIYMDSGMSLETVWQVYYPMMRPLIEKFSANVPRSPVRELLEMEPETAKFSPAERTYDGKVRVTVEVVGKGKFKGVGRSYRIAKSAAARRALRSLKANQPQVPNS

B1: human transactivation response element RNA-binding protein (TRBP) (natural protein, UniProt Q15633 1-366, looked up)
chain: MSEEEQGSGTTTGCGLPSIEQMLAANPGKTPISLLQEYGTRIGKTPVYDLLKAEGQAHQPNFTFRVTVGDTSCTGQGPSKKAAKHKAAEVALKHLKGGSMLEPALEDSSSFSPLDSSLPEDIPVFTAAAAATPVPSVVLTRSPPMELQPPVSPQQSECNPVGALQELVVQKGWRLPEYTVTQESGPAHRKEFTMTCRVERFIEIGSGTSKKLAKRNAAAKMLLRVHTVPLDARDGNEVEPDDDHFSIGVGSRLDGLRNRGPGCTWDSLRNSVGEKILSLRSCSLGSLGALGPACCRVLSELSEEQAFHVSYLDIEELSLSGLCQCLVELSTQPATVCHGSATTREAARGEAARRALQYLKIMAGSK
notes: TRBP, human, from plasmid pET28a-TRBP; The construct is that of Addgene plasmid #50351
Turning to B1, the binding result is given as “binds”.
